From the supplement of paper PMC9170038

These sequences were tested on MS2 coat protein (assay: apparent KD of MS2 coat protein; higher = weaker reporter binding). Settings: Eterna round: R107; input ligand: theophylline 2 mM.
How it was run: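 SNAP-549-labelled MS2 coat protein was titrated onto designed RNA switches that had been transcribed on-chip from Illumina sequencing clusters. Amounts doubled from 0.7 or 1.5 nM to 3 µM in 100 mM Tris-HCl pH 7.5, 80 mM KCl, 4 mM MgCl2, with constant ligand or without. Apparent KD is the median per design of normalised cluster binding-curve fits.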

Sequence	apparent KD of MS2 coat protein [nM]
AGCCACUCGAGUGAUCCUCACGAGUGGCUACGAGGACCGGUACGGCCGCCACUCGAAUUAACAUGAGGAUCACCCAUGUAAUCAC [Brourdmod05]	597
CACGAAAGAUCGGCCGCCACUCAUGUUUCUUACAUGAGGAUCACCCAUGUAUUUUCUUUCUUUUAGAGGACCGGGAUCGAGCGUG [#01 Same State - Tryptophan B]	47.2
GCAUCCUAGUCGGCCGCCACUGCAUCACCGGUCCUAGGUGAUCAACAUGAGGAUCACCCAUGUAGCAGGACCGGGACUAGGAUGC [(Trp1)-(MT)''-(MT)'-(Ms2)-(Trp2)_Design2]	636
GUAUUCAUGACGGCCGCCACUGCAAGCCUCCUCAUGGCAGAUUGACAUGAGGAUCACCCAUGUCUCAGGACCGGGUCUGGCAUCC [theeternabot_sameState_MS2_Trp_B_43]	346
CUAUAAGUACCGGUCCUCAGAUCCUCAUGACGAGGACCGGUACGGCCGCCACUCGAAACAUGAGGAUCACCCAUGUAAUAACAUU [Brourdmod22]	24.9
CACGAAAGAUCGGCCGCCACUAAUCGAUGUGUUCUUUCACAUGAGGAUCACCCAUGUUCUUGCGUUAGGACCGGGAUUGAGCGUG [#01 Exclusion Tryptophan B]	52.4
ACCGCAUCCGUAUAGGAUGCGGGCCAUGAAGGAGCGUGGGAAACCACAGGUAGGUCGCAUGGGUUACAUGAGGAUCACCCAUGUG [Jaws]	585
UUUGGCGGCGAUCUGGGUUUACCAGAUCGGCGAGGACCGGUACGGCCGCCACUCGUGUUUCUUUGACAUGAGGAUCACCCAUGUA [whbob_SS_trypto A_f3]	102

Same assay, conditions: Eterna round: R107; input ligand: tryptophan 2.4 mM

Sequence	apparent KD of MS2 coat protein [nM]
AAAGUUGAUGAGUUGCGUUUGUGUUCCGAAGGAGCGAGAAUUAUCUCAGGUAGGUCGCGGAACAUGAGGAUCACCCAUGUAUAAA [XArg-A 19 NuV1&2 original #dotplot2>1]	34.3
GGAGGUACCCGAAGGAGCGACAUGAGGAUCACCCAUGUCUCCCGUUAUGGGAGUUCCUUAGGUCAGGUAGGUCGCGGGUACCUCC [#1 Exclusion - Arginine B Attempt #1 (Inspired by Omei)]	109
UGACAUUGCUCAGAUACCAGACGUGAGGAUCACCCACGUGCCAACAUGAGGAUCACCCAUGUCCCUUGGCAGCUGAGCAAUGUCU	15.5
GAGAGUGUGUGCGAAAGCACAGAUCUGGAAGGAGCGUAGAAAGAUACAGGUAGGUCGCCGGGACAUGAGGAUCACCCAUGUGUAU [ArgiA-ms2@63]	34.2
UACAUGAGGAUCACCCAUGUAAGGUGAGAUACCAGUGAUAUGCUACACCCUUGGCAGCUCACGGCUGACUAUCAGCACACAUGUA [Theo A SS t1]	26.8
GGUGGCUGGAUCGAUACCAGCCACCACCGAUAGACCACAUGAGGAUCACCCAUGUUGGGUGGCCCUUGGCAGCGGUCCAGCUGCC [#1 Same State - Theophylline B Attempt #5 (HarryS)]	851
UUAUGCAGGUCGGCCGCCACUACACACAUGAGGAUCACCCAUGUAGUUACUGGGUGAAGUGGCAGUAGGACCGGGACCUGCACAU [Brourdmod13]	465
CCCUGGGUGGGAAGGAGCGCAUAGUGAACAUGAGGAUCACCCAUGUGCAGACGUGAGUCAUUGCAGGUAGGUCGCCCACCCAGGG [SS-ArgB22]	20.9
AUCGUACCUGGUGAUACCAGCAAUUGCUCGUGACAUGAGGAUCACCCAUGUGGCCAGUGAUGCCCUUGGCAGCAUGGUCGGUGCA [Same State - Theophylline B (Freestyle 24)]	122
GGAUGAAACUGAAGGAGCGAGAUCACAAGAUUGGGUCUAACAUGAGGAUCACCCAUGUAAUCUCAGGUAGGUCGCAGUGUCCCUU [Exclusion Arginine B GF 12]	31.6
CCUUAACAUGAGGAUCACCCAUGUCUGGAUACCAGAUACAGAUAAAUCCCUUGGCAGCCAAAAUAUGAAAGAAAUAAAAUAAGAA [theeternabot_sameState_MS2_Theo_A_29]	50.2
GCACCAGGUACGGAUACCAGCUGCCAGCGUUACAUGAGGAUCACCCAUGUGAUCUGAAGUAGCCCUUGGCAGCUGUACCUGGUGC [SSThB NP+V+V2 #4 +-Same Structure]	62
GCUUGGGUGGCACAGCACUGGCAGUGCGAUACCAGCACGGUAACGUGCCCUUGGCAGCGCACAUGAGGAUCACCCAUGUGGUGCG [#1 Exclusion - Theophylline A Attempt #26 (HarryS)]	26
GAACAAGGUUUCUUGUUCGGUCGCUGAGAAGGAGCGCGGUAACCCGCAGGUAGGUCGCUCAGAAAUACAUGAGGAUCACCCAUGU [Anaa]	17.8
AUACAUGAGGAUCACCCAUGUAUAGUUGAAGGAGCGACCAGAGGGUCAGGUAGGUCGCAGCACAUGAGGAUCACCCAUGUAUUUU [#1 Exclusion - Arginine A Attempt #14 (Inspired by Pi)]	27.3
UCGCCCGGGUCGGCCGCCACUGAGGUGAUAUGACAUGAGGAUCACCCAUGUUGUCAUGUGGAACAUAGGACCGGGACCCGGGCGA [Exclusion - Tryptophan B Attempt #2 (HarryS)]	17.8
ACACGGCAUGAUGGAUCACCUCGUGAAUCACGAGGACCGGUACGGCCGCCACUCGAAAACCGUGACCUGUACGAAAAGUGCAGGA	38.8
AACGUGAACGUGGUAUACCCGUGUGCCGAAGGAGCGCCCGUAAGGGCAGGUAGGUCGCGGUCGACAUGAGGAUCACCCAUGUUUG	81.6
CAAUGCGGUUAGGAUACCAGCGACACACACUUCUCACAACACAUGAGGAUCACCCAUGUCCGCCCUUGGCAGCCUUGACUAAGGU [theeternabot_exclusion_MS2_Theo_B_39]	27.2
CGGUUUGUGAUGGAUACCAGCAGAGAAAAUGUUUAUCCUAACAUGAGGAUCACCCAUGUGUGCCCUUGGCAGCUGUUGUGGGCUG [8.W]	49.7
GCAUCCUAGUCGGCCGCCACUGCAUCACCGGUCCUAGGUGAUCAACAUGAGGAUCACCCAUGUAGCAGGACCGGGACUAGGAUGC [(Trp1)-(MT)''-(MT)'-(Ms2)-(Trp2)_Design2]	19.9
AUUGUGAACCUGAUCGUAUAAUGUAGCGAUACCAGUAUAAUACAUUACCCUUGGCAGCGCGACACAUGAGGAUCACCCAUGUAAG [theeternabot_exclusion_MS2_Theo_A_10]	23
AUAUCAUAGAGUGAUACCAGACUACAUGAGGAUCACCCAUGUGACAUUUAAAUAUCAUUUGUCCCUUGGCAGCACAUUAAGUACA [JR_Nu_ExcTheophyB_Sub020]	61.6
GAAUUAUGACGUGAUACCAGUGGUCAAUACUGGGAACUUAACAUGAGGAUCACCCAUGUCCACCCUUGGCAGCACGCUGACAAUC [theeternabot_exclusion_MS2_Theo_B_14]	79.6
ACGAUAGGACAUGAGGAUCACCCAUGUGAUACCAGCCUGGAAACAGGCCCUUGGCAGCACAAAUACUCCAGAAACCUAUCGAAUA [TheoAX2 #MicroSwitchBubble]	273
ACCGCAUCCGUAUAGGAUGCGGGCCAUGAAGGAGCGUGGGAAACCACAGGUAGGUCGCAUGGGUUACAUGAGGAUCACCCAUGUG [Jaws]	534
CCUCGAUUUUGAUACCGAUAUGUCUUUGAUACCAGCGCCAUAGUACGCCCUUGGCAGCAAGAAACAUGAGGAUCACCCAUGUUAA [theeternabot_exclusion_MS2_Theo_A_36]	16.7
